The record followed here is US20100273865A1 (VERENIGING VOOR CHRISTELIJK HOGER ONDERWIJS …, published 2010).

The target in this test is T1, CREB (Homo sapiens (Human), UniProt P16220 1-327).
T1 construct: also called CREB1
Nature of the test: co-immunoprecipitation from HEK293 cells, Western blot. A general note: In western blotting, separated proteins are transferred to a membrane and probed.

T1 sequence (P16220 other isoform, or with tags, fused parts or gaps): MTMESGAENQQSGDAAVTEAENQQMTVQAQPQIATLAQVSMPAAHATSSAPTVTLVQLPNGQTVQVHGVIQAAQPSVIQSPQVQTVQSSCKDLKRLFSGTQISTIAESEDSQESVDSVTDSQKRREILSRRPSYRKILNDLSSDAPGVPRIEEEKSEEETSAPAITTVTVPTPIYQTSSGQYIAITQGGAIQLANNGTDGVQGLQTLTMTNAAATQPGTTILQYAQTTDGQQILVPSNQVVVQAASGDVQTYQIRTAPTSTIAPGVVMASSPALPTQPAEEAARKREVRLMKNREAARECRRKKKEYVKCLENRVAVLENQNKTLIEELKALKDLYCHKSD

B1: Flag-tagged dominant-negative NFIL3 (other)
chain: MDYKDDDDKHMASMTGGQQMGRDPDLEQRAEELARENEELEKEAEELEQELAELENKLIALGEENATLKAELLSLKLKFGLISSTVYAQEIQKLSNSTAVYFQDYQTSKAAVSSYVDEHEPAMVAGSCISVIKHSPQSSLSDVSEVSSVEHTQESPAQGGCRSPENKFPVIKQEPVELESFARESREERGAYSASIYQSYMGSSFSTYSHSPPLLQVHGSTSNSPRTSEADEGVVGKSSDGEDEQQVPKGPIHSPVELQRVHATVVKVPEVNPSALPHKLRIKAKAMQVKVEALDSEFEGMQKLSSPADALAKRHFDLEKHGASGTAHSSLPPFSVQVTNIQDWSLRSEHWHHKELGGKTQGTFKTGVVEVKDSGYKVSEAENLYLKQGVANLSAEVVSLKRFIATQPISASDSR
notes: Expressed in HEK293 cells from modified pcDNA3.1; Species of the NFIL3 portion is inferred from the rat cDNA named in the same paragraph; also called DN-NFIL3; dominant-negative NFIL3 protein
In the case of B1, the binding result is “no binding”.
